Read-outs that look alike come from different tables or passages of the source.
Key:
[1] = biological target: NaChBac (Bacillus halodurans); test: cryo-EM structure
[2] = biological target: NaChBac (Bacillus halodurans); test: cryo-EM structure; remark: listed apart in the source

Question: Which results are given for NaChBac (natural protein)?
Answer: stoichiometry N [1]: 4; stoichiometry N [2]: 4

Source: article doi:10.1101/2020.04.16.045674
